Measured values as given in patent US20250171535A1, “COMPOSITIONS AND METHODS FOR DEPLETION OF DISEASED HEMATOPOIETIC STEM CELLS” (Jasper Therapeutics, Inc., priority 2022, published 2025).

Assays:
[1] = system: diseased HSC cells (CD34+CD45RA-CD117+ HSCs); test: Clinical study: depletion of diseased stem and progenitor cells in higher risk MDS or AML patients; type: in vivo, human; details: nine higher risk MDS or AML patients; single dose 0.6 mg/kg intravenously; 10-14 days post-treatment
Method: FIG. 2 is a bar graph of the percent (%) depletion of CD34+CD45RA-CD117+ cells in nine myelodysplastic syndrome (MDS) and acute myeloid leukemia (AML) patients treated with a single dose of anti-c-kit antibody, measured 10-14 days post-treatment.
(§1) Nine patients having either higher risk MDS or AML were treated with a single dose of 0.6 mg/kg JSP191 administered intravenously.

[2] = Clinical study: safety and tolerability in higher risk MDS or AML patients; type: in vivo, human; details: 0.6 mg/kg intravenously
Method: as §1

Substance: JSP191: aglycosylated IgG1 humanized anti-c-kit (CD117) antibody, humanized form of murine SR1; heavy chain SEQ ID NO: 2, light chain SEQ ID NO: 3
- depletion of diseased HSC cells (CD34+CD45RA-CD117+ HSCs) [1]: 30-95%
- JSP191-related infusion reactions [2]: No significant JSP191-related infusion reactions were observed
- adverse events [2]: no significant adverse events were observed
- safety and tolerability ([2]; ongoing clinical trial): safe and well-tolerated
